# Experimental data published in patent US20220110851A1 (SKINMED, published 2022).
# No end group written: not given here.
# Biological target: acetylcholine receptor on AchR-overexpressed TE671 cells
# Test: cell-based or functional assay
Binder,"AchR inhibition, TE671 cells, 400 µM nicotine [%]","AchR inhibitory rate, TE671 cells, 400 µM nicotine, 20 µM peptide [%]","inhibitory ability on nicotinic acetylcholine receptors, in multiples compared with Spep-2 [times]",IC50 value for AchR (AchR inhibitory effect in TE671 cells) [nM],"AchR inhibitory effect, Fura-2 fluorescence in TE671 cells after 1 µM acetylcholine [%]"
RYAKHRKRQTR [L2-110],100,~100,8,–,–
RARKKRKSLLRRQV [L3-27],100,~100,8,–,–
WTWKGRKSLLR [Spep-2],100,~10,–,750,–
WTWKGRDKLQM [Spep-4],–,–,–,–,17
PNGKVRKRIRRRYF [L3-28],100,~100,16,–,–
SNVKRKRGRCKPYR [L3-37],–,~100,32,–,–
WTWKGNKQVKF [Spep-10],–,–,–,–,47
RFRRGVRR [L1-13],–,~100,–,–,–
"WTWKGRKSLLR (also: palmitoyl conjugated, site not given here) [Palmitoyl-Spep-2]",–,–,–,75,–
